Experimental data taken from article PMC2706102 (Nature structural & molecular biology, 2009).

Target: the molecule itself
Assay: HPLC sedimentation assay of aggregation

| Protein | binding result |
| --- | --- |
| KKQQQQQQQQQQQQQQQQQQQQQQQQQQQQQQQQQQQKK [Q35] | binds |
| KKQQQQQQQQQQQQQQQQQQQQQQQQQQQQQQQQQQQPPPPPPPPPPKK [Q35P10] | binds |
